Experimental data reported in the supplement of paper PMC11246515.
± gives the standard deviation of the averaged measurements.

Assay: total protein half-life in vivo (active degradation + dilution); higher = more stable protein
[1] = E. coli NCM3722 delta-lon, growth: N-lim chemostat, doubling time 6 h
[2] = E. coli NCM3722 delta-clpP delta-lon delta-hslV, growth: N-lim chemostat, doubling time 6 h
[3] = E. coli NCM3722 delta-clpP, growth: N-lim chemostat, doubling time 6 h
[4] = E. coli NCM3722 delta-hslV, growth: N-lim chemostat, doubling time 6 h
[5] = E. coli NCM3722 delta-smpB, growth: N-lim chemostat, doubling time 6 h
[6] = wild type E. coli NCM3722, growth: C-lim chemostat, doubling time 3 h
[7] = wild type E. coli NCM3722, growth: C-lim chemostat, doubling time 12 h
[8] = wild type E. coli NCM3722, growth: N-lim chemostat, doubling time 6 h
[9] = wild type E. coli NCM3722, growth: N-lim chemostat, doubling time 12 h
[10] = wild type E. coli NCM3722, growth: P-lim chemostat, doubling time 6 h
[11] = wild type E. coli NCM3722, growth: P-lim chemostat, doubling time 12 h
[12] = wild type E. coli NCM3722, growth: C-lim chemostat, doubling time 6 h

| Sequence | total protein half-life in vivo [1] [h] | total protein half-life in vivo [2] [h] | total protein half-life in vivo [3] [h] | total protein half-life in vivo [4] [h] | total protein half-life in vivo [5] [h] | total protein half-life in vivo [6] [h] | total protein half-life in vivo [7] [h] | total protein half-life in vivo [8] [h] | total protein half-life in vivo [9] [h] | total protein half-life in vivo [10] [h] | total protein half-life in vivo [11] [h] | total protein half-life in vivo [12] [h] |
| --- | --- | --- | --- | --- | --- | --- | --- | --- | --- | --- | --- | --- |
| MLEDLRANSWSLRPCCMVLAYRVAHFCSVWRKKNVLNNLWAAPLLVLYRIITECFFGYEIQAAATIGRRFTIHHGYAVVINKNVVAGDDFTIRHGVTIGNRGADNMACPHIGNGVELGANVIILGDITLGNNVTVGAGSVVLDSVPDNALVVGEKARVKVIK [P0ACC9] | 7.07 ± 0.2 | – | – | – | – | – | – | – | – | – | – | – |
| MLEILYQDEWLVAVNKPSGWLVHRSWLDRDEKVVVMQTVRDQIGQHVFTAHRLDRPTSGVLLMGLSSEAGRLLAQQFEQHQIQKRYHAIVRGWLMEEAVLDYPLVEELDKIADKFAREDKGPQPAVTHYRGLATVEMPVATGRYPTTRYGLVELEPKTGRKHQLRRHLAHLRHPIIGDSKHGDLRQNRSGAEHFGLQRLMLHASQLSLTHPFTGEPLTIHAGLDDTWMQALSQFGWRGLLPENERVEFSAPSGQDGEISS [P0AA41] | 4.49 | 4.78 ± 0.18 | 4.49 ± 0.16 | 4.87 ± 0.88 | 4.34 ± 0.19 | 3 ± 0.28 | 11.8 ± 0.17 | 5.27 ± 1.3 | 6.98 | 5.28 ± 0.23 | 10.91 ± 0.044 | – |
| MLELLFLLLPVAAAYGWYMGRRSAQQNKQDEANRLSRDYVAGVNFLLSNQQDKAVDLFLDMLKEDTGTVEAHLTLGNLFRSRGEVDRAIRIHQTLMESASLTYEQRLLAIQQLGRDYMAAGLYDRAEDMFNQLTDETDFRIGALQQLLQIYQATSEWQKAIDVAERLVKLGKDKQRVEIAHFYCELALQHMASDDLDRAMTLLKKGAAADKNSARVSIMMGRVFMAKGEYAKAVESLQRVISQDRELVSETLEMLQTCYQQLGKTAEWAEFLQRAVEENTGADAELMLADIIEARDGSEAAQVYITRQLQRHPTMRVFHKLMDYHLNEAEEGRAKESLMVLRDMVGEKVRSKPRYRCQKCGFTAYTLYWHCPSCRAWSTIKPIRGLDGL [P0AB58] | 6.43 ± 0.094 | 5.9 ± 0.22 | – | 6.34 ± 0.37 | 6.039 ± 0.011 | 3.1 ± 0.047 | 12.2 ± 0.99 | 6.101 ± 0.027 | 15.2 ± 0.67 | 5.63 ± 0.45 | 12.5 ± 0.6 | 5.91 ± 0.073 |
| MLELNFSQTLGNHCLTINETLPANGITAIFGVSGAGKTSLINAISGLTRPQKGRIVLNGRVLNDAEKGICLTPEKRRVGYVFQDARLFPHYKVRGNLRYGMSKSMVDQFDKLVALLGIEPLLDRLPGSLSGGEKQRVAIGRALLTAPELLLLDEPLASLDIPRKRELLPYLQRLTREINIPMLYVSHSLDEILHLADRVMVLENGQVKAFGALEEVWGSSVMNPWLPKEQQSSILKVTVLEHHPHYAMTALALGDQHLWVNKLDEPLQAALRIRIQASDVSLVLQPPQQTSIRNVLRAKVVNSYDDNGQVEVELEVGGKTLWARISPWARDELAIKPGLWLYAQIKSVSITA | 5.26 ± 0.55 | 5.74 ± 0.84 | 6.32 ± 1.6 | 6.25 ± 0.98 | 5.04 ± 0.092 | 2.76 ± 0.18 | 11 ± 1.2 | 5.676 ± 0.014 | 10.2 ± 1.3 | 6.12 ± 0.077 | – | 5.77 ± 0.64 |
| MLEMLMQWYRRRFSDPEAIALLVILVAGFGIIFFFSGLLAPLLVAIVLAYLLEWPTVRLQSIGCSRRWATSIVLVVFVGILLLMAFVVLPIAWQQGIYLIRDMPGMLNKLSDFAATLPRRYPALMDAGIIDAMAENMRSRMLTMGDSVVKISLASLVGLLTIAVYLVLVPLMVFFLLKDKEQMLNAVRRVLPRNRGLAGQVWKEMNQQITNYIRGKVLEMIVVGIATWLGFLLFGLNYSLLLAVLVGFSVLIPYIGAFVVTIPVVGVALFQFGAGTEFWSCFAVYLIIQALDGNLLVPVLFSEAVNLHPLVIILSVVIFGGLWGFWGVFFAIPLATLIKAVIHAWPDGQIAQE [P0AFI9] | – | > 8 | – | – | > 8 | > 4 | 12.2 ± 0.49 | – | 10.4 ± 1.8 | – | – | 6.12 ± 0.64 |
| MLEQMGIAAKQASYKLAQLSSREKNRVLEKIADELEAQSEIILNANAQDVADARANGLSEAMLDRLALTPARLKGIADDVRQVCNLADPVGQVIDGGVLDSGLRLERRRVPLGVIGVIYEARPNVTVDVASLCLKTGNAVILRGGKETCRTNAATVAVIQDALKSCGLPAGAVQAIDNPDRALVSEMLRMDKYIDMLIPRGGAGLHKLCREQSTIPVITGGIGVCHIYVDESVEIAEALKVIVNAKTQRPSTCNTVETLLVNKNIADSFLPALSKQMAESGVTLHADAAALAQLQAGPAKVVAVKAEEYDDEFLSLDLNVKIVSDLDDAIAHIREHGTQHSDAILTRDMRNAQRFVNEVDSSAVYVNASTRFTDGGQFGLGAEVAVSTQKLHARGPMGLEALTTYKWIGIGDYTIRA | 4.75 ± 0.29 | 5.127 ± 0.031 | 4.65 ± 0.2 | 4.64 ± 0.14 | 4.5 ± 0.067 | 3.12 ± 0.3 | 10.9 ± 0.47 | 4.65 ± 0.12 | 7.82 ± 0.18 | 5.31 ± 0.65 | 12.15 ± 0.096 | 5.68 ± 0.2 |
| MLFTIQLIIILICLFYGARKGGIALGLLGGIGLVILVFVFHLQPGKPPVDVMLVIIAVVAASATLQASGGLDVMLQIAEKLLRRNPKYVSIVAPFVTCTLTILCGTGHVVYTILPIIYDVAIKNNIRPERPMAASSIGAQMGIIASPVSVAVVSLVAMLGNVTFDGRHLEFLDLLAITIPSTLIGILAIGIFSWFRGKDLDKDEEFQKFISVPENREYVYGDTATLLDKKLPKSNWLAMWIFLGAIAVVALLGADSDLRPSFGGKPLSMVLVIQMFMLLTGALIIILTKTNPASISKNEVFRSGMIAIVAVYGIAWMAETMFGAHMSEIQGVLGEMVKEYPWAYAIVLLLVSKFVNSQAAALAAIVPVALAIGVDPAYIVASAPACYGYYILPTYPSDLAAIQFDRSGTTHIGRFVINHSFILPGLIGVSVSCVFGWIFAAMYGFL [P0ABN9] | – | 7.71 | 5.98 ± 1.5 | 5.58 ± 0.66 | – | – | – | 6.04 ± 0.11 | 12.9 ± 1.5 | – | > 16 | – |
